Experiment [1] concerns the target T1, LAG-3-OFP(NCBI登录号:NP_002277.4) on HEK293细胞 (human, UniProt P18627 23-525).
T1 construct: whole, on cells; also called HEK-293-LAG3-OFP; HEK293-LAG-3
T1 sequence (looked up): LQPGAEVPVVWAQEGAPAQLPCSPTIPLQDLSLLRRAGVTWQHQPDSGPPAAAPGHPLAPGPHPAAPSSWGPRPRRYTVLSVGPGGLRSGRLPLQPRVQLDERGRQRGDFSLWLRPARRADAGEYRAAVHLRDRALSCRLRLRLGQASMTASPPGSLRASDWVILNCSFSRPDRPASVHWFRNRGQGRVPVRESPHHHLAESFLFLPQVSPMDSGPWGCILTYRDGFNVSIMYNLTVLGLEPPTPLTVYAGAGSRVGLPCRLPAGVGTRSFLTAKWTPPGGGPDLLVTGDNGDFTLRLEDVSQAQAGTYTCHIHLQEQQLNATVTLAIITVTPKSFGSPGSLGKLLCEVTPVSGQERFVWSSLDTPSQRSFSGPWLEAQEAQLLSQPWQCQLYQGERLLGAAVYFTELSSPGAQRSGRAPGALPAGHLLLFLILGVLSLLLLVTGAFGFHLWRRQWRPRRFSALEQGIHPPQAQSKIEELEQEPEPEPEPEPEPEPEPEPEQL
Nature of the experiment: flow cytometry, double-positive cells (CFSE-labelled CHO-PD-L1-CD3L with HEK-293-LAG3-OFP). A general note: A flow cytometer gives signals particle by particle.

The target of experiment [2] is T2, 人PD-L1 on CHO-PD-L1-CD3L细胞 (human, UniProt Q9NZQ7 19-290).
T2 construct: whole, on cells; also called 高表达人PD-L1的CHO细胞
Described as above.

The target of experiment [3] is T3, 人LAG-3胞外区融合蛋白(义翘神州，Cat:16498-H08H) (human, UniProt P18627 23-450).
T3 construct: extracellular domain; also called 人重组蛋白LAG-3; 人LAG-3重组蛋白
T3 sequence (looked up): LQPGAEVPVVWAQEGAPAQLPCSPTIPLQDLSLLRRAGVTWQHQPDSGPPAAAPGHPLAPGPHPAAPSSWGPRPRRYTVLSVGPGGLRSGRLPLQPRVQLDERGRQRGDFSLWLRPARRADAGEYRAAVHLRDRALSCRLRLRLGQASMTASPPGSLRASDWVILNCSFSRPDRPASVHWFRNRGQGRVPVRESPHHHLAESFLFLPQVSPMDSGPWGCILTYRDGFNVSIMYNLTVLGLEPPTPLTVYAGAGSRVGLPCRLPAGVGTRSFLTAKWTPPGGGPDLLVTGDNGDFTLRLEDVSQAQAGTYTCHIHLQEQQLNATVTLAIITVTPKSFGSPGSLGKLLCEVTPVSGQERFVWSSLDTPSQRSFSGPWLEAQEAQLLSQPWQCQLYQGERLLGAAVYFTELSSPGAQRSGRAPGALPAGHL
Nature of the experiment: SPR (Reichert 4SPR), antibody captured by anti-human Fc, antigen in flow.

A further experiment addresses T4, 肿瘤细胞MBA-MD-231细胞表面的PD-L1 (UniProt Q9NZQ7 19-290, limits assumed).
T4 construct: whole, on cells; also called 细胞表面PD-L1
Nature of the experiment: flow cytometry on MBA-MD-231 tumour cells.

Experiment [4] addresses T5, 鼠PD-L1(Cat:50010-M08H，北京义翘神州科技股份有限公司) (mouse, UniProt Q9EP73 19-238).
T5 construct: also called 小鼠PD-L1
Nature of the experiment: ELISA, antigen coated at 1 μg/mL. Background: ELISA stands for enzyme-linked immunosorbent assay.

The target of experiment [5] is T6, 鼠重组蛋白LAG-3(Cat:53069-M08H，北京义翘神州科技股份有限公司) (mouse, UniProt Q61790 24-442).
T6 construct: also called 小鼠LAG-3; 鼠LAG-3
T6 sequence (looked up): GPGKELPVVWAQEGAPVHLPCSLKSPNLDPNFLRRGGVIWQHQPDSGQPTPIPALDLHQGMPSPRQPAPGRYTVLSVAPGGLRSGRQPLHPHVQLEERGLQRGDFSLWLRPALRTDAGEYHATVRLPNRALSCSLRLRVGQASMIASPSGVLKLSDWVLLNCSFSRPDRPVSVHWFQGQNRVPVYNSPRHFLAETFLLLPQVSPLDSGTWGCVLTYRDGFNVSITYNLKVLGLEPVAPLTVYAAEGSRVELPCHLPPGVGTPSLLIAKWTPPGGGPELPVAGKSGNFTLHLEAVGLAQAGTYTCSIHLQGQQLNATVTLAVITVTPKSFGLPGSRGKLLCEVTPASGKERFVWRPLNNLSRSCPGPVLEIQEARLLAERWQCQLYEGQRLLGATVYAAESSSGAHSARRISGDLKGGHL
The experiment is described as follows: ELISA, antigen coated at 1 μg/mL.

In experiment [6] the target is T7, LAG-3(NCBI登录号:NP_002277.4)全长, HEK293细胞表面 (human, UniProt P18627 23-525).
T7 construct: whole, on cells; also called HEK293-LAG-3; 细胞表面LAG-3
T7 sequence (looked up): T1 sequence (looked up)
The experiment is described as follows: flow cytometry on HEK293 cells transfected with full-length LAG-3.

T5 sequence (Q9EP73 19-238 limits assumed, stated change not applied): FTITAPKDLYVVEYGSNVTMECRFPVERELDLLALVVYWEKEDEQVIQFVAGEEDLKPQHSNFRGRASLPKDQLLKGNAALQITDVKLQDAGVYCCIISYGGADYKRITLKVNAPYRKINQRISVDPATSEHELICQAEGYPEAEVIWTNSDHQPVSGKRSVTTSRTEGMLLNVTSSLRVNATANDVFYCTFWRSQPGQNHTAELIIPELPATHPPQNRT
T4 sequence (Q9NZQ7 19-290 limits assumed): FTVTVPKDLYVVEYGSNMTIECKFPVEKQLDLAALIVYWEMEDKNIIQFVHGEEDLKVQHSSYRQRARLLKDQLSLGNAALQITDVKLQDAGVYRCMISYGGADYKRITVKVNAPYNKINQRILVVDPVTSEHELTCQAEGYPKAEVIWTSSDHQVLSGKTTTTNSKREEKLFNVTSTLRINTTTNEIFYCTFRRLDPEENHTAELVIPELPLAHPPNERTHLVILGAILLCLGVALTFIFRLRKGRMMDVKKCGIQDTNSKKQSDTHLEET
T2 sequence (Q9NZQ7 19-290): as the sequence (Q9NZQ7 19-290 limits assumed) above

B1: hz7F10-hzB6 (bispecific antibody, human IgG1, kappa, L234A L235A)
heavy: not shown
light: DIQMTQSPSSLSASVGDRVTITCKASENVGTYVSWFQQKPGKAPKLLIYGASNRYTGVPSRFSGSGSGTDFTLTISSLQPEDFATYYCGQSYSYPYTFGQGTKLEIKRTVAAPSVFIFPPSDEQLKSGTASVVCLLNNFYPREAKVQWKVDNALQSGNSQESVTEQDSKDSTYSLSSTLTLSKADYEKHKVYACEVTHQGLSSPVTKSFNRGEC
notes: Expressed transiently in HEK293 cells; also called 抗人LAG-3/PD-L1双特异抗体; LAG-3/PD-L1双特异抗体
Consider B1, for which the binding result was “binds” in experiment [1]; “binds” in experiment [2]; “binds” in experiment [3]; “binds” with 肿瘤细胞MBA-MD-231细胞表面的PD-L1; “no binding (tested: 1μg/mL)” in experiment [4]; “no binding (tested: 1μg/mL)” in experiment [5]. The binding result in experiment [6] is “binds”.

B2: hz7F10-hzF2 (bispecific antibody, human IgG1, kappa, L234A L235A)
heavy: not shown
light: B1 light
notes: as for B1
As to B2, the binding result in experiment [3] is “binds”; with 肿瘤细胞MBA-MD-231细胞表面的PD-L1, “binds”; in experiment [4], “no binding (tested: 1μg/mL)”; in experiment [5] it was “no binding (tested: 1μg/mL)”; in experiment [6], “binds”.

B3: 对照抗体BMS-986016 (antibody, human IgG4 S228P, kappa, V domains shown)
VH: QVQLQQWGAGLLKPSETLSLTCAVYGGSFSDYYWNWIRQPPGKGLEWIGEINHRGSTNSNPSLKSRVTLSLDTSKNQFSLKLRSVTAADTAVYYCAFGYSDYEYNWFDPWGQGTLVTVSS
VL: EIVLTQSPATLSLSPGERATLSCRASQSISSYLAWYQQKPGQAPRLLIYDASNRATGIPARFSGSGSGTDFTLTISSLEPEDFAVYYCQQRSNWPLTFGQGTNLEIKR
Consider B3, for which, in experiment [5], the binding result is on record as “no binding (tested: 1μg/mL)”.

B4: 人源化抗体hz7F10 (antibody, human IgG1, kappa, L234A L235A, V domains shown)
VH: EVQLVQSGAEVKKPGASVKVSCKASGVNIKDDYMHWVRQAPGQGLEWIGRIDPEDVETKYDPKFQGRVTITADTSTSTAYMELSSLRSEDTAVYYCARSFYSNYVNYFDQWGQGTLVTVSS
VL: DIQMTQSPSSLSASVGDRVTITCKASENVGTYVSWFQQKPGKAPKLLIYGASNRYTGVPSRFSGSGSGTDFTLTISSLQPEDFATYYCGQSYSYPYTFGQGTKLEIKR
notes: Humanised from mouse antibody 7F10; also called 裸抗体hz7F10; 抗LAG-3抗体hz7F10
In the case of B4, the binding result in experiment [3] and in experiment [6] was “binds” each time.
